# T1: C-terminally 3×FLAG-1×HA-tagged mouse MINION (Mus musculus) (UniProt Q2Q5T5)
# T1 sequence: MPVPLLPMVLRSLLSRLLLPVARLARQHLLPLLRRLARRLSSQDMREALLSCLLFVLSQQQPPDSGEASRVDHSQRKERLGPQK
# B1: Synaptopodin 2-like protein (protein, UniProt Q8BWB1 1-975, looked up)
# Synaptopodin 2-like protein: MGAEEEVQVTLAGGAPWGFRLQGGTEQRKPLQIRRRSQAGRAGLRERDQLLAINGVSCTNFSHASAMTLIDASGRQLVLTVRRVTDEGSVRSPSPGELQVLSPLSPLSPEPPGAPVSQALQPTSLRSPPDSEAYYGETDSDVDGPATQEKPRRTRRRGPARPSLPGAPPDEVYLSDSPAEPAPVKTGSPSQGDSRVSSPSWEEGAALQPPPAEALLLPHGPLRPGPHLIPMVGPVPHPVAEDLTTTYTQKAKQAKLQRAESLQEKSVKEARTKCRTIASLLTAAPNPHSKGVLMFKKRRQRAKKYTLVSFGAAAGTGTEEEDGIPPTSESELDEETFSDARSLTNQSDWDSPYLDMELARAGLGTAESQNSGLGGQLSEVSGRGVQLFEQQRQRVASSSQELAQVGPAAMLNGQSLQSPPRAQSAPPEAAVLPLSPLSVPAVSPTPFFPDGGAPIPAPSIFNRSARPFTPGLQGQRSGTTSVIFRPLAPKKVNEGLGSTSPAPSPFAAPPQGPTPLPSFTTVVPSHTPVSGASSSTQRSSGPVTATSSLYIPAPSRPVTPGGAPEPPTPPSAAAMTSTASIFLSTPLRNSARPEAPGPAVPEPASVREQRISVPAARTGILQEARRRGTRKQMFRPGKEETKNSPNPELLSLVQNLDEKPRAGGAESGPEEDALSLGAEACNFMQPLGGRSYKTLPQVSPKTPPPMAPKTPPPTTPKTPPPVAPKPGSRGLLDGLVNGSTPMVGIPEPPRLQGRGGELFAKRQSRADRYVVEATSGSSLNPGLRPRSPSPTPSLPPSWKYSPNIRAPPPIAYNPLLSPFFPQAARTLPNKAQSQGPRVTPKQGIKALDFMRHQPYQLKTAMFCFDEGSSTPGPTSGPPKTARVQEIRRFSTPAPQPTAEPLAPTVLVPRAATTLDEPIWRAELASTPVPNPDHQESLRSFAAAPSSCGFQVARPRFSATRTGLQAHVWRPGAGHQ
# B2: C-terminally 3×FLAG-1×HA-tagged mouse MINION (other)
# chain: T1 sequence
# notes: Construct of the mouse MINION CDS (84 aa isoform) expressed from the pCIGAR retroviral vector; The AP-MS text only says 'FLAG-tagged Minion'; also called FLAG-tagged Minion; 3F1H-tagged mouse MINION; not shown: C-terminal 3×FLAG-1×HA tag
# How the values were obtained:
# [1] = molecular target: T1, C-terminally 3×FLAG-1×HA-tagged mouse MINION (Mus musculus); assay: AP-MS, FLAG-tagged Minion bait, differentiating C2C12 myoblasts
# [2] = molecular target: T2, Gapdh (mouse, UniProt P16858 1-333); assay: Western blot of the FLAG-tagged Minion affinity purification
# T2 construct: also called glyceraldehyde-3-phosphate dehydrogenase
# T2 sequence (P16858 whole entry): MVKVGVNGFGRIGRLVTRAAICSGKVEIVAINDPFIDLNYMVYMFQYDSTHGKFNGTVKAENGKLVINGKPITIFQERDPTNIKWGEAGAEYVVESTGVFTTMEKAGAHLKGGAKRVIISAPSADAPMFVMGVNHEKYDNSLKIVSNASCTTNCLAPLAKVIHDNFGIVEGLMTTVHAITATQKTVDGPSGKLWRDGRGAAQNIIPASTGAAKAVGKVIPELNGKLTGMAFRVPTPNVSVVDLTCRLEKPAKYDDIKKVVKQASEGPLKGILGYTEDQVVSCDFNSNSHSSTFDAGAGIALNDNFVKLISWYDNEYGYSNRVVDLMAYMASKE
Molecule,Sequence Coverage (%) [1] [%],Unique Peptide [1],binding result [2]
T-complex protein 1 subunit alpha,52,20,–
"Adenylate kinase isoenzyme 4, mitochondrial (from UniProt Q9WUR9 1-223)",52,6,–
"Inositol 1,4,5-trisphosphate receptor type 3 (from UniProt P70227 1-2670)",6,11,–
Junctional sarcoplasmic reticulum protein 1 (from UniProt Q3MI48 1-332),53,8,–
ATPase family AAA domain-containing protein 1 (from UniProt Q9D5T0 1-361) (enzyme),30,7,–
"Calcium uniporter protein, mitochondrial (from UniProt Q3UMR5 50-350)",38,12,–
Voltage-dependent anion-selective channel protein 1 (from UniProt Q60932 1-296),15,10,–
Syntaxin-8 (from UniProt O88983 1-236),19,4,–
Cytoplasmic dynein 1 heavy chain 1 (from UniProt Q9JHU4 2-4644),46,157,–
Dysferlin (from UniProt Q9ESD7 1-2090),13,17,–
"NADH-ubiquinone oxidoreductase 75 kDa subunit, mitochondrial (from UniProt Q91VD9 24-727) (enzyme)",20,9,–
DnaJ homolog subfamily C member 16 (from UniProt Q80TN4 26-772),19,9,–
"Very long-chain specific acyl-CoA dehydrogenase, mitochondrial (from UniProt P50544 42-656) (enzyme)",57,26,–
Cytoskeleton-associated protein 5 (from UniProt A2AGT5 1-2032),8,13,–
T-complex protein 1 subunit theta (from UniProt P42932 2-548),48,22,–
"Nascent polypeptide-associated complex subunit alpha, muscle-specific form (from UniProt P70670 1-2187)",18,23,–
"Trifunctional enzyme subunit beta, mitochondrial (from UniProt Q99JY0 35-475)",68,22,–
Acetolactate synthase-like protein (from UniProt Q8BU33 1-632) (enzyme),32,10,–
Apolipoprotein O-like (from UniProt Q78IK4 28-265),49,9,–
Cluster of Myc box-dependent-interacting protein 1 (from UniProt O08539 2-588),42,16,–

Molecule,Sequence Coverage (%) [1] [%],Unique Peptide [1],binding result [2]
"Cytochrome b-c1 complex subunit 1, mitochondrial (from UniProt Q9CZ13 35-480)",41,13,–
"Isovaleryl-CoA dehydrogenase, mitochondrial (from UniProt Q9JHI5 31-424) (enzyme)",49,16,–
"NADH dehydrogenase [ubiquinone] 1 alpha subcomplex subunit 10, mitochondrial (from UniProt Q99LC3 36-355) (enzyme)",24,7,–
Signal recognition particle 68 kDa protein (from UniProt Q8BMA6 1-625),25,11,–
"Trifunctional enzyme subunit alpha, mitochondrial (from UniProt Q8BMS1 37-763)",66,33,–
Vacuolar protein sorting-associated protein 45 (from UniProt P97390 1-570),15,7,–
Tripartite motif-containing protein 72 (from UniProt Q1XH17 1-477),55,16,–
"Coproporphyrinogen-III oxidase, mitochondrial (from UniProt P36552 99-443) (enzyme)",52,19,–
Cluster of Guanine nucleotide-binding protein G(s) subunit alpha isoforms short,34,9,–
"ATP synthase subunit beta, mitochondrial (from UniProt P56480 47-529) (enzyme)",77,26,–
Aldehyde dehydrogenase family 3 member B1 (from UniProt Q80VQ0 1-465) (enzyme),46,15,–
T-complex protein 1 subunit beta (from UniProt P80314 2-535),55,20,–
Sorbin and SH3 domain-containing protein 2 (from UniProt Q3UTJ2 1-1180),7,6,–
"NADH dehydrogenase [ubiquinone] flavoprotein 1, mitochondrial (from UniProt Q91YT0 21-464) (enzyme)",24,7,–
Calsequestrin-2 (from UniProt O09161 20-415),24,9,–
B-cell receptor-associated protein 31 (from UniProt Q61335 2-245),27,7,–
Eukaryotic initiation factor 4A-II (from UniProt P10630 1-407),53,9,–
B1,8,5,–
B2,–,–,no binding
